The numbers were not newly measured in paper PMC1087504, which cites them from elsewhere.

As a reminder, the Kd is the concentration at which binding is half-saturated.

The data set has as its target 3 beta-hydroxysteroid dehydrogenase (Bos taurus) (UniProt P14893).
UniProt P14893, sequence (P14893 whole entry): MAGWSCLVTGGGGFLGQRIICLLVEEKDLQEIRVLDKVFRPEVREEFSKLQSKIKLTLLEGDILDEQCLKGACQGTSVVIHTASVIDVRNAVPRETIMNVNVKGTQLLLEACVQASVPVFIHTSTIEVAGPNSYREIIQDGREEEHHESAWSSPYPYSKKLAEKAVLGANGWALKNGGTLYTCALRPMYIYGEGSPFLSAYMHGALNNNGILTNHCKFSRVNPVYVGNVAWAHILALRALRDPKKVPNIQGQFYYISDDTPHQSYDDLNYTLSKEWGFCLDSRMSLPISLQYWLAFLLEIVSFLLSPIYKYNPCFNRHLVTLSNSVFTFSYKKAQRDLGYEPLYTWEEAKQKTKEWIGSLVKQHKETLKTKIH

Regarding P450scc (from UniProt P00189), the dissociation constant Kd is 120 nM.
